The record followed here is the supplement of paper PMC10724198.

Data set [1] deals with Saccharomyces cerevisiae. The experiment in a line: protein stability index of tFT-peptide fusion (C-terminal peptide) (PSI (0-1 scale)); higher = more stable (slower turnover). Here is the method: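 MPS profiling in S. cerevisiae of the tFT-X12 degron library: putative degron peptides plus stable controls, 12 aa, fused to the C-terminus of a sfGFP-mCherry timer. Cells are FACS-sorted into 8 mCherry/sfGFP bins and deep-sequenced. PSI runs from 0 (unstable) to 1 (stable). Backgrounds are wild type, das1Δ and doa10Δ at 30 °C, and wild type, das1Δ, cdc34-1 and cdc53-1 at 37 °C; 2-3 technical replicates each.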

For data set [2], the system named is Saccharomyces cerevisiae. Described as above. The conditions noted are these: genetic background: wild type; temperature: 30 C.
Where [3] appears, read: genetic background: cdc34-1, temperature: 37 C.
[4] abbreviates: genetic background: cdc53-1, temperature: 37 C.
The mark [5] stands for this setting: genetic background: das1 deletion, temperature: 30 C.
[6] abbreviates: genetic background: das1 deletion, temperature: 37 C.
Setting [7] is: genetic background: doa10 deletion, temperature: 30 C.
The mark [8] stands for this setting: genetic background: wild type, temperature: 30 C.
Setting [9] is: genetic background: wild type, temperature: 37 C.

± gives the standard deviation of the averaged measurements.
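Further: PSI is a weighted mean of sequencing reads over stability bins, variants kept only with over 10 reads, mCherry proximal and sfGFP distal, peptide attached via GGGS linker.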

Take FVSGRFLFFFVL: the protein stability index turned out to be 0.52 ± 0.029 in the data set with Saccharomyces cerevisiae [1] (setting [3]); 0.675 ± 0.0071 with Saccharomyces cerevisiae [1] (setting [4]); 0.489 ± 0.018 in the data set on Saccharomyces cerevisiae [1] (setting [5]); 0.699 ± 0.014 with Saccharomyces cerevisiae [1] (setting [6]); 0.162 ± 0.0036 with Saccharomyces cerevisiae [1] (setting [7]); 0.144 ± 0.018 in the data set with Saccharomyces cerevisiae [1] (setting [8]). Further, the protein stability index in the data set on Saccharomyces cerevisiae [1] (setting [9]) turned out to be 0.208 ± 0.0074; in the data set with Saccharomyces cerevisiae [2], 0.204 ± 0.04.

Take FVSSLLPLLTLL: the protein stability index in the data set with Saccharomyces cerevisiae [1] (setting [3]) was determined as 0.555 ± 0.032; in the data set with Saccharomyces cerevisiae [1] (setting [4]), 0.636 ± 0.013; in the data set on Saccharomyces cerevisiae [1] (setting [5]), 0.608 ± 0.032; in the data set on Saccharomyces cerevisiae [1] (setting [6]), 0.694 ± 0.014; in the data set on Saccharomyces cerevisiae [1] (setting [7]) it was 0.142 ± 0.0036; in the data set with Saccharomyces cerevisiae [1] (setting [8]), 0.141 ± 0.012. For the same sequence, the figures for the protein stability index with Saccharomyces cerevisiae [1] (setting [9]) and with Saccharomyces cerevisiae [2] were 0.218 ± 0.0057 and 0.293 ± 0.033, respectively.

In the case of FVVVGVLFLCVG, the protein stability index turned out to be 0.256 ± 0.0023 in the data set on Saccharomyces cerevisiae [1] (setting [3]); 0.4122 ± 0.00071 in the data set on Saccharomyces cerevisiae [1] (setting [4]); 0.278 ± 0.023 in the data set with Saccharomyces cerevisiae [1] (setting [5]); 0.479 ± 0.011 in the data set with Saccharomyces cerevisiae [1] (setting [6]); 0.258 ± 0.0065 in the data set with Saccharomyces cerevisiae [1] (setting [7]); 0.277 ± 0.03 in the data set on Saccharomyces cerevisiae [1] (setting [8]). Besides, the protein stability index was 0.442 ± 0.007 in the data set on Saccharomyces cerevisiae [1] (setting [9]) and 0.367 ± 0.025 with Saccharomyces cerevisiae [2].

FWFSFSFLCHSY: the protein stability index with Saccharomyces cerevisiae [1] (setting [3]) came out at 0.384 ± 0.022; in the data set on Saccharomyces cerevisiae [1] (setting [4]), 0.4491 ± 0.001; in the data set with Saccharomyces cerevisiae [1] (setting [5]) it was 0.358 ± 0.032; with Saccharomyces cerevisiae [1] (setting [6]), 0.4386 ± 0.001; in the data set with Saccharomyces cerevisiae [1] (setting [7]) it was 0.386 ± 0.02; with Saccharomyces cerevisiae [1] (setting [8]), 0.38 ± 0.0095. Moreover, the results for the protein stability index in the data set with Saccharomyces cerevisiae [1] (setting [9]) and in the data set with Saccharomyces cerevisiae [2] were 0.407 ± 0.02 and 0.422 ± 0.016, respectively.

Regarding FYFLSFLLLLSP, the protein stability index in the data set on Saccharomyces cerevisiae [1] (setting [3]) amounted to 0.143 ± 0.0096; in the data set with Saccharomyces cerevisiae [1] (setting [4]), 0.132 ± 0.021; with Saccharomyces cerevisiae [1] (setting [5]), 0.182 ± 0.024; in the data set with Saccharomyces cerevisiae [1] (setting [6]), 0.294 ± 0.0094; in the data set on Saccharomyces cerevisiae [1] (setting [7]), 0.223 ± 0.0038; in the data set on Saccharomyces cerevisiae [1] (setting [8]), 0.156 ± 0.035. Besides, the protein stability index came to 0.245 ± 0.024 with Saccharomyces cerevisiae [1] (setting [9]) and 0.176 ± 0.012 in the data set with Saccharomyces cerevisiae [2].

On to FYGVRFLVCVSA, for which the protein stability index in the data set with Saccharomyces cerevisiae [1] (setting [3]) stood at 0.0202 ± 0.0026; in the data set with Saccharomyces cerevisiae [1] (setting [4]), 0.0332 ± 0.0048; in the data set on Saccharomyces cerevisiae [1] (setting [5]), 0.111 ± 0.037; in the data set with Saccharomyces cerevisiae [1] (setting [6]), 0.117 ± 0.015; with Saccharomyces cerevisiae [1] (setting [7]), 0.0738 ± 0.018; with Saccharomyces cerevisiae [1] (setting [8]), 0.105 ± 0.03. The figures for the protein stability index with Saccharomyces cerevisiae [1] (setting [9]) and in the data set with Saccharomyces cerevisiae [2] were 0.096 ± 0.0045 and 0.1575 ± 0.0005, respectively.

For GAWLAVCVVREG, the protein stability index in the data set with Saccharomyces cerevisiae [1] (setting [3]) came out at 0.493 ± 0.04; in the data set with Saccharomyces cerevisiae [1] (setting [4]) it was 0.568 ± 0.014; with Saccharomyces cerevisiae [1] (setting [5]) it was 0.398 ± 0.023; with Saccharomyces cerevisiae [1] (setting [6]), 0.589 ± 0.0069; in the data set with Saccharomyces cerevisiae [1] (setting [7]), 0.37 ± 0.007; in the data set on Saccharomyces cerevisiae [1] (setting [8]), 0.405 ± 0.021. In addition, the protein stability index with Saccharomyces cerevisiae [1] (setting [9]) is 0.5526 ± 0.0021; in the data set on Saccharomyces cerevisiae [2] it was 0.479 ± 0.022.

Turning to GCILSLCYAVST, the protein stability index in the data set on Saccharomyces cerevisiae [1] (setting [3]) was determined as 0.555 ± 0.051; with Saccharomyces cerevisiae [1] (setting [4]), 0.569 ± 0.024; in the data set on Saccharomyces cerevisiae [1] (setting [5]), 0.332 ± 0.026; in the data set with Saccharomyces cerevisiae [1] (setting [6]) it was 0.534 ± 0.014; in the data set with Saccharomyces cerevisiae [1] (setting [7]), 0.296 ± 0.0074; in the data set with Saccharomyces cerevisiae [1] (setting [8]), 0.318 ± 0.018. The protein stability index in the data set on Saccharomyces cerevisiae [1] (setting [9]) was 0.523 ± 0.013; with Saccharomyces cerevisiae [2], 0.389 ± 0.016.

With GCVTFVLISFCA, the protein stability index in the data set on Saccharomyces cerevisiae [1] (setting [3]) is 0.238 ± 0.007; with Saccharomyces cerevisiae [1] (setting [4]) it was 0.306 ± 0.039; with Saccharomyces cerevisiae [1] (setting [5]), 0.225 ± 0.03; in the data set with Saccharomyces cerevisiae [1] (setting [6]) it was 0.425 ± 0.012; in the data set with Saccharomyces cerevisiae [1] (setting [7]), 0.186 ± 0.035; in the data set on Saccharomyces cerevisiae [1] (setting [8]), 0.208 ± 0.027. For the same sequence, the protein stability index came to 0.386 ± 0.012 with Saccharomyces cerevisiae [1] (setting [9]) and 0.358 ± 0.016 in the data set with Saccharomyces cerevisiae [2].

As for GELVLVMYGIWV, the protein stability index in the data set on Saccharomyces cerevisiae [1] (setting [3]) was 0.392 ± 0.013; with Saccharomyces cerevisiae [1] (setting [4]) it was 0.47 ± 0.0055; with Saccharomyces cerevisiae [1] (setting [5]) it was 0.29 ± 0.028; with Saccharomyces cerevisiae [1] (setting [6]) it was 0.502 ± 0.013; with Saccharomyces cerevisiae [1] (setting [7]), 0.238 ± 0.0055; in the data set on Saccharomyces cerevisiae [1] (setting [8]), 0.277 ± 0.033. Also, the protein stability index is 0.458 ± 0.0063 with Saccharomyces cerevisiae [1] (setting [9]) and 0.351 ± 0.058 in the data set on Saccharomyces cerevisiae [2].

Turning to GFESTCSLLCVF, the protein stability index worked out at 0.33 ± 0.026 with Saccharomyces cerevisiae [1] (setting [3]); 0.348 ± 0.015 with Saccharomyces cerevisiae [1] (setting [4]); 0.314 ± 0.036 in the data set on Saccharomyces cerevisiae [1] (setting [5]); 0.433 ± 0.001 in the data set with Saccharomyces cerevisiae [1] (setting [6]); 0.264 ± 0.021 with Saccharomyces cerevisiae [1] (setting [7]); 0.306 ± 0.026 with Saccharomyces cerevisiae [1] (setting [8]). The protein stability index in the data set on Saccharomyces cerevisiae [1] (setting [9]) came out at 0.407 ± 0.013; with Saccharomyces cerevisiae [2], 0.43 ± 0.029.

Consider GFFFFHGLCFFV, for which the protein stability index with Saccharomyces cerevisiae [1] (setting [3]) amounted to 0.448 ± 0.017; with Saccharomyces cerevisiae [1] (setting [4]), 0.513 ± 0.028; in the data set on Saccharomyces cerevisiae [1] (setting [5]) it was 0.382 ± 0.029; with Saccharomyces cerevisiae [1] (setting [6]) it was 0.5453 ± 0.0035; in the data set with Saccharomyces cerevisiae [1] (setting [7]) it was 0.358 ± 0.028; in the data set on Saccharomyces cerevisiae [1] (setting [8]), 0.355 ± 0.023. Also, the protein stability index was 0.526 ± 0.02 in the data set on Saccharomyces cerevisiae [1] (setting [9]) and 0.43 ± 0.047 in the data set with Saccharomyces cerevisiae [2].

Consider GFFFWTMCFWVV, for which the protein stability index is 0.255 ± 0.01 in the data set on Saccharomyces cerevisiae [1] (setting [3]); 0.349 ± 0.022 in the data set with Saccharomyces cerevisiae [1] (setting [4]); 0.303 ± 0.038 in the data set with Saccharomyces cerevisiae [1] (setting [5]); 0.456 ± 0.011 with Saccharomyces cerevisiae [1] (setting [6]); 0.204 ± 0.0089 in the data set with Saccharomyces cerevisiae [1] (setting [7]); 0.194 ± 0.02 with Saccharomyces cerevisiae [1] (setting [8]). For the same sequence, the protein stability index amounted to 0.322 ± 0.026 in the data set on Saccharomyces cerevisiae [1] (setting [9]) and 0.284 ± 0.046 in the data set on Saccharomyces cerevisiae [2].

Regarding GFLVPSSPRCHQ, the protein stability index was 0.708 ± 0.018 in the data set on Saccharomyces cerevisiae [1] (setting [3]); 0.72 ± 0.039 in the data set with Saccharomyces cerevisiae [1] (setting [4]); 0.6427 ± 0.0046 in the data set with Saccharomyces cerevisiae [1] (setting [5]); 0.72 ± 0.0086 in the data set with Saccharomyces cerevisiae [1] (setting [6]); 0.654 ± 0.018 in the data set on Saccharomyces cerevisiae [1] (setting [7]); 0.681 ± 0.047 with Saccharomyces cerevisiae [1] (setting [8]). For the same sequence, the protein stability index in the data set with Saccharomyces cerevisiae [1] (setting [9]) worked out at 0.691 ± 0.012; in the data set with Saccharomyces cerevisiae [2], 0.727 ± 0.0082.

Regarding GFSPLFVLVFGV, the protein stability index in the data set on Saccharomyces cerevisiae [1] (setting [3]) was determined as 0.47 ± 0.012; with Saccharomyces cerevisiae [1] (setting [4]), 0.486 ± 0.024; with Saccharomyces cerevisiae [1] (setting [5]), 0.312 ± 0.027; in the data set with Saccharomyces cerevisiae [1] (setting [6]), 0.518 ± 0.012; in the data set with Saccharomyces cerevisiae [1] (setting [7]), 0.333 ± 0.016; in the data set with Saccharomyces cerevisiae [1] (setting [8]) it was 0.311 ± 0.013. Also, the protein stability index stood at 0.489 ± 0.011 in the data set on Saccharomyces cerevisiae [1] (setting [9]) and 0.4261 ± 0.0035 in the data set with Saccharomyces cerevisiae [2].
